Consider one substance from US20090317333.

The data set deals with AKAR3 (A-Kinase Activity Reporter 3).

“catalytic subunit of PKA (protein kinase A), as used in the in vitro kinase assay”: the “FRET efficiency of AKAR3 after phosphorylation (trypsin quantification)” value is 38.8%±7.36% and 47.2%±7.67% (n=2) before and after phosphorylation, respectively; the “FRET efficiency of AKAR3 before phosphorylation (trypsin quantification)” value is 38.8%±7.36% and 47.2%±7.67% (n=2) before and after phosphorylation, respectively; the “increase of the emission ratio of AKAR3 over approximately 40 minutes after addition of ATP (in vitro kinase assay)” value is 29.1%±1.11% (n=2).
